We go through one molecule from patent US20170158747A1 (Novartis, published 2017).

Assay in all cases: cell-based or functional assay
Test [1] deals with T1, mouse IL10 receptor on mouse cells (whole blood, colon) (mouse, UniProt Q61727 17-575; Q61190 20-349).
T1 sequence (looked up) 1: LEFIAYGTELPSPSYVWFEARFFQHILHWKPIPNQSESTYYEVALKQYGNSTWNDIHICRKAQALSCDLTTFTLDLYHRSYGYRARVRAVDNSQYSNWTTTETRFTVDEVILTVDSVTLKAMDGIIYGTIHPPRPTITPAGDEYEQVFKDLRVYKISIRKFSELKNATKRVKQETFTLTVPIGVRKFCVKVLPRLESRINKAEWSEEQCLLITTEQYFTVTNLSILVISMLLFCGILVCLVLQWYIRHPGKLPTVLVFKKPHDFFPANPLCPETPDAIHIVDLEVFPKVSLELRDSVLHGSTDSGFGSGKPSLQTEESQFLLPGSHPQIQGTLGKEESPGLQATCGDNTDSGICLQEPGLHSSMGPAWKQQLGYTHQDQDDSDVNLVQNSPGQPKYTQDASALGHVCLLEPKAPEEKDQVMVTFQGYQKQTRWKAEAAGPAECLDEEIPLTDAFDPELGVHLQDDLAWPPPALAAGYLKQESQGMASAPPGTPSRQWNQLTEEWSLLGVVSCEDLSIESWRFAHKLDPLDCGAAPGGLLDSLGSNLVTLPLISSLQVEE
T1 sequence (looked up) 2: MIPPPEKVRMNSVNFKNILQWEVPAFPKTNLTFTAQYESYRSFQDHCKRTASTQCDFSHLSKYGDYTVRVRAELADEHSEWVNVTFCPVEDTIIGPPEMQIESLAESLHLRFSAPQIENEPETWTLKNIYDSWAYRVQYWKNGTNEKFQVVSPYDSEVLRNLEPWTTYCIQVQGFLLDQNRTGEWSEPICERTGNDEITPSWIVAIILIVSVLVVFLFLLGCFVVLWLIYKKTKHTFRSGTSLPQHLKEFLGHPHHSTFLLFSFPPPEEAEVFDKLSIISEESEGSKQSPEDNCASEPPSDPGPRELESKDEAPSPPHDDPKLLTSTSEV

In test [2] the target is T2, cynomolgus monkey IL10 receptor on cynomolgus whole blood cells (cynomolgus monkey, UniProt A0A2K5WJ66 22-576; A0A7N9D6W2 20-323).
T2 sequence 1: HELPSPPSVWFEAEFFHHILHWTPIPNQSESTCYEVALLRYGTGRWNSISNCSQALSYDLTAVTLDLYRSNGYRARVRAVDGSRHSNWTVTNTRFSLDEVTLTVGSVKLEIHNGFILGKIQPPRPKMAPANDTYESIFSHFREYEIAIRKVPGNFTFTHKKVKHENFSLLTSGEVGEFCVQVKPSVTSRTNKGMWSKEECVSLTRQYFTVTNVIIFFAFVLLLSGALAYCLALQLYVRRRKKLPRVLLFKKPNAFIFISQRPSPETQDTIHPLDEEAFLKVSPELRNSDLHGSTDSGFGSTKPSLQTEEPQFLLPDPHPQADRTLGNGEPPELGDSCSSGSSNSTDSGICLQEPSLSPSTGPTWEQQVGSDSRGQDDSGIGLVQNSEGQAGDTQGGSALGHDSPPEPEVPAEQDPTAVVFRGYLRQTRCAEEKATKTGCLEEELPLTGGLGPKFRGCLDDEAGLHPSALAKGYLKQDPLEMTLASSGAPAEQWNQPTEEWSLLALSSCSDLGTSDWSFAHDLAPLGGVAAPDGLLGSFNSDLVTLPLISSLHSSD
T2 sequence 2: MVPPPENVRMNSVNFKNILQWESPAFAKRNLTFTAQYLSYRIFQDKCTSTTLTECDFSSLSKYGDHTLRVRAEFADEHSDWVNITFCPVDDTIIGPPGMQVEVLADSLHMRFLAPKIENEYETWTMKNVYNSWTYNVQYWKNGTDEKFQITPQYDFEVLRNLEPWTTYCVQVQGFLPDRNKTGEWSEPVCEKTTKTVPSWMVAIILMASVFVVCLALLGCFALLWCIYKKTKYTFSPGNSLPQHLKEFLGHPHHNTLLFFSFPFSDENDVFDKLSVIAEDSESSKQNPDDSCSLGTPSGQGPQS

Test [3] deals with T3, human IL10 receptor (IL10R1/R2 receptor complex) on human whole blood cells (human, UniProt Q13651 22-578; Q08334 20-325).
T3 sequence (looked up) 1: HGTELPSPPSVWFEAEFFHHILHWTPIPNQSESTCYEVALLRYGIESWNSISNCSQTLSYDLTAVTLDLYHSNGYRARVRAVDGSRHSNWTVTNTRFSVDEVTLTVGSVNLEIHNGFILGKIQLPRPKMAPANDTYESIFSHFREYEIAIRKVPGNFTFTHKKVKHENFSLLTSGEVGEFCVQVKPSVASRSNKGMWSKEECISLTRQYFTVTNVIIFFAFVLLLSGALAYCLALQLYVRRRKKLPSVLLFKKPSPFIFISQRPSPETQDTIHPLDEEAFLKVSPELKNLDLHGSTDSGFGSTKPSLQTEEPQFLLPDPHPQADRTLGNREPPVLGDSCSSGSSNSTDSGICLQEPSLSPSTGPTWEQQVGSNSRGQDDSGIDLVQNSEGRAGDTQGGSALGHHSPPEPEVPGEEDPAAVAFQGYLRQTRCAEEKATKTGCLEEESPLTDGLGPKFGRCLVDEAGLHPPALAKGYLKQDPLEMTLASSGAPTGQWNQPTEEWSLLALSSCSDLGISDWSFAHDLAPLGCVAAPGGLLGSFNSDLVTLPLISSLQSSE
T3 sequence (looked up) 2: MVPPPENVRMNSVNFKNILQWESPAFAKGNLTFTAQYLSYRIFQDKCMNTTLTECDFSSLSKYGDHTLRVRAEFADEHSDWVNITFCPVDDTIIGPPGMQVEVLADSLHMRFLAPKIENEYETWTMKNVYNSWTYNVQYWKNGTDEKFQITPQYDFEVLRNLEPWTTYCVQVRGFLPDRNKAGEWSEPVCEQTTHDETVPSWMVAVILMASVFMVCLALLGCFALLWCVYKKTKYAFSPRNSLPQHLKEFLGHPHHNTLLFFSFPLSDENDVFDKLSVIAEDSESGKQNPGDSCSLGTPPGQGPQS

B1: IgGIL10M13 (antibody)
heavy: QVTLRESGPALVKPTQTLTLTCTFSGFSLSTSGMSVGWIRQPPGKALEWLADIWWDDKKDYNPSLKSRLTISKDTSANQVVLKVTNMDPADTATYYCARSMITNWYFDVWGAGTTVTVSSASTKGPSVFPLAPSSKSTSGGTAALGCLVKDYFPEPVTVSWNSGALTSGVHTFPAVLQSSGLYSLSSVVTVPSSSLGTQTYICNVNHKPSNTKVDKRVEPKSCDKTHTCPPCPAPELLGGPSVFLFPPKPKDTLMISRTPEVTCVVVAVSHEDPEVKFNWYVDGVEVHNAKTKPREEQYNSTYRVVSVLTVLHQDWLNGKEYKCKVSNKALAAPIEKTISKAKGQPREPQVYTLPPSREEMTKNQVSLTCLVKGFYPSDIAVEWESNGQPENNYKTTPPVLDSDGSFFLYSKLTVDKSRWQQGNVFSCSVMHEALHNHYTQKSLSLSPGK
light: DIQMTQSPSTLSASVGDRVTITCKAQLSSPGQGTQSENSCTHFPGNLPNMLRDLRDAFSRVKTFFQMKDQLDNLLLKESLLEDFKGYLGCQALSEMIQFYLEEVMPQAENQDPDIKAHVNSLGENLKTLRLRLRRCHRFLPCENGGGSGGKSKAVEQVKNAFNKLQEKGIYKAMSEFDIFINYIEAYMTMKIRNVGYMHWYQQKPGKAPKLLIYDTSKLASGVPSRFSGSGSGTAFTLTISSLQPDDFATYYCFQGSGYPFTFGGGTKLEIKRTVAAPSVFIFPPSDEQLKSGTASVVCLLNNFYPREAKVQWKVDNALQSGNSQESVTEQDSKDSTYSLSSTLTLSKADYEKHKVYACEVTHQGLSSPVTKSFNRGEC
Turning to B1, the “IC50, inhibition of LPS-induced TNFα production, ex vivo mouse whole blood” value in test [1] turned out to be 0.012 nM. Besides, in test [2], the “IC50, inhibition of LPS-induced TNFα production, ex vivo cynomolgus whole blood” value amounted to 0.00667 nM. The “IC50, inhibition of LPS-induced TNFα production, ex vivo human whole blood” value in test [3] came to 0.0252 nM.
